Measured values as given in US20260109980A1 (TRUSTEES OF COLUMBIA UNIVERSITY IN THE CITY OF NEW YORK, published 2026).

B1: Vibrio cholerae Cas6 (enzyme)
chain: not shown
notes: Ribonuclease subunit of Cascade, seen within the TniQ-Cascade cryo-EM structure; also called VchCas6; Csy4
B2: Vibrio cholerae Cas7 (other)
chain: not shown
notes: Six copies stand in Cascade; Cas7.1 is the monomer furthest from Cas8 and next to Cas6, and Cas7.2 is the next one; also called VchCas7; Cas7.1

Key:
[1] = target: B2; assay: cryo-EM structure
[2] = target: B1; assay: cryo-EM structure

| Binder | binding result [1] | binding result [2] |
| --- | --- | --- |
| B1 | binds |  |
| B2 |  | binds |
